Test results as given in article PMC5263062.

How the values were obtained:
Assay in all cases: purified protein
purified protein [1] = substrate: CCCCC(=O)O; settings: 10 mM ATP, 4 mM MnSO4, pH 7.5, 37 °C
purified protein [2] = substrate: CC(C)C(=O)O; settings: 10 mM ATP, 4 mM MnSO4, pH 7.5, 37 °C
purified protein [3] = substrate: Nc1ncnc2c1ncn2[C@@H]1O[C@H](COP(=O)(O)OP(=O)(O)OP(=O)(O)O)[C@@H](O)[C@H]1O; settings: 200 mM butyrate, 4 mM MnSO4, pH 7.5, 37 °C, no ADP
purified protein [4] = substrate: CC(C)CC(=O)O; settings: 10 mM ATP, 4 mM MnSO4, pH 7.5, 37 °C
purified protein [5] = substrate: CCCC(=O)O; settings: 10 mM ATP, 4 mM MnSO4, pH 7.5, 37 °C

B1: LmBuk (Buk, butyrate kinase) (Listeria monocytogenes EGD-e) (protein)
chain: MSFDVLTINPGSTSTKLAVYQGDKVLFEETVRHTMQELADFNNVQEQFDFRWQVLRRVMDAHGYDVKKLQAVVGRGGLLRPVAGGTYMVTEKMIDDLKENKYGEHASNLGAMLAKKLADELTIPSFIVDPVVVDEMQEIARISGNAFVTRKSIFHALNHKAAGRKIAKELGKDYEKMNFVIAHLGGGISVAAHRQGKAVDVNNALDGDGPFSPERSGSLPMNDFLEACFSGKWTKRELHELIVGRGGMISYLGTNSMLEVEAKVQAGEEKAIEAFDAMAYQVSKEIGACSVVLQGKVDAIILTGGLARSELFTSKIIEQTNWITSVIIEPGEDELEALNSGVQRVLAGLEKEKEY
Km (purified protein [1]): 13.1 ± 3.3 mM | kcat (purified protein [1]): 1.2 ± 0.0367 s⁻¹ | kcat/Km (purified protein [1]): 91.7 M⁻¹ s⁻¹ | Km (purified protein [2]): 7.6 ± 1.3 mM | kcat (purified protein [2]): 0.395 ± 0.00667 s⁻¹ | kcat/Km (purified protein [2]): 51.7 M⁻¹ s⁻¹ | K0.5 (purified protein [3]): 3.18 mM | Km (purified protein [4]): 57.1 ± 9.6 mM | kcat (purified protein [4]): 0.417 s⁻¹ | kcat/Km (purified protein [4]): 7.33 M⁻¹ s⁻¹ | Km (purified protein [5]): 50.5 ± 5.8 mM | kcat (purified protein [5]): 0.8367 ± 0.00667 s⁻¹ | kcat/Km (purified protein [5]): 16.5 M⁻¹ s⁻¹
